{
  "source": "patent US20110311550A1",
  "about": "(Scripps Research, published 2011)",
  "binders": {"B1": {"name": "N4 IgG (antibody, V domains shown)", "VH": "VQLLEQSGPEVKKPGDSLRISCKMSGDSLVTTWIGWVRQKPGQGLEWMGIINPGDSSTNIYPGDSATRYGPSFQGQVTISIDKSTSTAYLQWNNVKASDTGIYYCARHVPVPISGTFLWREREMHDFGYFDDWGQGTLVIVSS", "VL": "ELTLTQSPGTLSLSPGERATLSCRASQSVSNNYLAWYQQKPGQAPRLLIYGASSRATGIPDRFSGSGSGTGFTLIISRLEPEDFAVYYCQQYGSSSITFGQGTRLEIKR", "notes": "also called IgG N4"}},
  "assay_in_all_cases": "ELISA, lectin-captured E1E2 lysate, Ab 1 ug/ml;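 also: E1E2 captured on Galanthus nivalis lectin-coated plates, bound test antibody read out by an HRP-linked secondary antibody and TMB colour development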",
  "key": {"[1]": {"biological_target": "E1E2 complex (H77) with E1 mutation R296A (HCV genotype 1a, isolate H77, UniProt P27958 192-383; P27958 384-746)"}, "[2]": {"biological_target": "E1E2 complex (H77) with E1 mutation R195A (HCV genotype 1a, isolate H77, UniProt P27958 192-383; P27958 384-746)"}, "[3]": {"biological_target": "E1E2 complex (H77) with E1 mutation N325A (HCV genotype 1a, isolate H77, UniProt P27958 192-383; P27958 384-746)"}, "[4]": {"biological_target": "E1E2 complex (H77) with E1 mutation P228A (HCV genotype 1a, isolate H77, UniProt P27958 192-383; P27958 384-746)"}, "[5]": {"biological_target": "E1E2 complex (H77) with E1 mutation N305A (HCV genotype 1a, isolate H77, UniProt P27958 192-383; P27958 384-746)"}, "[6]": {"biological_target": "E1E2 complex (H77) with E1 mutation S294A (HCV genotype 1a, isolate H77, UniProt P27958 192-383; P27958 384-746)"}, "[7]": {"biological_target": "E1E2 complex (H77) with E1 mutation A269G (HCV genotype 1a, isolate H77, UniProt P27958 192-383; P27958 384-746)"}, "[8]": {"biological_target": "E1E2 complex (H77) with E1 mutation F291A (HCV genotype 1a, isolate H77, UniProt P27958 192-383; P27958 384-746)"}, "[9]": {"biological_target": "E1E2 complex (H77) with E1 mutation Q289A (HCV genotype 1a, isolate H77, UniProt P27958 192-383; P27958 384-746)"}, "[10]": {"biological_target": "E1E2 complex (H77) with E1 mutation S273A (HCV genotype 1a, isolate H77, UniProt P27958 192-383; P27958 384-746)"}, "[11]": {"biological_target": "E1E2 complex (H77) with E1 mutation H352A (HCV genotype 1a, isolate H77, UniProt P27958 192-383; P27958 384-746)"}, "[12]": {"biological_target": "E1E2 complex (H77) with E1 mutation N196A (HCV genotype 1a, isolate H77, UniProt P27958 192-383; P27958 384-746)"}, "[13]": {"biological_target": "E1E2 complex (H77) with E1 mutation N234A (HCV genotype 1a, isolate H77, UniProt P27958 192-383; P27958 384-746)"}, "[14]": {"biological_target": "E1E2 complex (H77) with E1 mutation D263A (HCV genotype 1a, isolate H77, UniProt P27958 192-383; P27958 384-746)"}, "[15]": {"biological_target": "E1E2 complex (H77) with E1 mutation G278A (HCV genotype 1a, isolate H77, UniProt P27958 192-383; P27958 384-746)"}, "[16]": {"biological_target": "E1E2 complex (H77) with E1 mutation V227A (HCV genotype 1a, isolate H77, UniProt P27958 192-383; P27958 384-746)"}, "[17]": {"biological_target": "E1E2 complex (H77) with E1 mutation G350A (HCV genotype 1a, isolate H77, UniProt P27958 192-383; P27958 384-746)"}, "[18]": {"biological_target": "E1E2 complex (H77) with E1 mutation S327A (HCV genotype 1a, isolate H77, UniProt P27958 192-383; P27958 384-746)"}, "[19]": {"biological_target": "E1E2 complex (H77) with E1 mutation M324A (HCV genotype 1a, isolate H77, UniProt P27958 192-383; P27958 384-746)"}, "[20]": {"biological_target": "E1E2 complex (H77) with E1 mutation G315A (HCV genotype 1a, isolate H77, UniProt P27958 192-383; P27958 384-746)"}, "[21]": {"biological_target": "E1E2 complex (H77) with E1 mutation T292A (HCV genotype 1a, isolate H77, UniProt P27958 192-383; P27958 384-746)"}, "[22]": {"biological_target": "E1E2 complex (H77) with E1 mutation Q193A (HCV genotype 1a, isolate H77, UniProt P27958 192-383; P27958 384-746)"}},
  "data": [
    {"binder": "B1", "values": [
      {"measurement": "Binding relative to wt (%)", "setting": "[1]", "result": 138, "unit": "%"},
      {"measurement": "Binding relative to wt (%)", "setting": "[2]", "result": 121, "unit": "%"},
      {"measurement": "Binding relative to wt (%)", "setting": "[3]", "result": 150, "unit": "%"},
      {"measurement": "Binding relative to wt (%)", "setting": "[4]", "result": 38, "unit": "%"},
      {"measurement": "Binding relative to wt (%)", "setting": "[5]", "result": 42, "unit": "%"},
      {"measurement": "Binding relative to wt (%)", "setting": "[6]", "result": 71, "unit": "%"},
      {"measurement": "Binding relative to wt (%)", "setting": "[7]", "result": 55, "unit": "%"},
      {"measurement": "Binding relative to wt (%)", "setting": "[8]", "result": 131, "unit": "%"},
      {"measurement": "Binding relative to wt (%)", "setting": "[9]", "result": 94, "unit": "%"},
      {"measurement": "Binding relative to wt (%)", "setting": "[10]", "result": 70, "unit": "%"},
      {"measurement": "Binding relative to wt (%)", "setting": "[11]", "result": 60, "unit": "%"},
      {"measurement": "Binding relative to wt (%)", "setting": "[12]", "result": 52, "unit": "%"},
      {"measurement": "Binding relative to wt (%)", "setting": "[13]", "result": 114, "unit": "%"},
      {"measurement": "Binding relative to wt (%)", "setting": "[14]", "result": 85, "unit": "%"},
      {"measurement": "Binding relative to wt (%)", "setting": "[15]", "result": 68, "unit": "%"},
      {"measurement": "Binding relative to wt (%)", "setting": "[16]", "result": 98, "unit": "%"},
      {"measurement": "Binding relative to wt (%)", "setting": "[17]", "result": 68, "unit": "%"},
      {"measurement": "Binding relative to wt (%)", "setting": "[18]", "result": 69, "unit": "%"},
      {"measurement": "Binding relative to wt (%)", "setting": "[19]", "result": 89, "unit": "%"},
      {"measurement": "Binding relative to wt (%)", "setting": "[20]", "result": 87, "unit": "%"},
      {"measurement": "Binding relative to wt (%)", "setting": "[21]", "result": 104, "unit": "%"},
      {"measurement": "Binding relative to wt (%)", "setting": "[22]", "result": 117, "unit": "%"}
    ]}
  ]
}
